Measurements reported in the nanobody polyreactivity screen of Harvey et al. (2022).

Assay: yeast display, Sf9 membrane polyspecificity reagent, FACS + sequencing; frameworks hold sequencing errors
Procedure, shortened: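 Galactose-induced (36–48 hours) yeast carrying a synthetic nanobody display library were exposed to 10% biotinylated, detergent-solubilized Sf9 membrane reagent at 4 °C for 1 hour. FACS followed streptavidin microbead enrichment, using low and high (top ~1%) gates for expression (anti-HA) and reagent binding (streptavidin). Colony PCR, MiSeq 2 × 250 sequencing and CDR-length filtering followed. Labels for polyreactivity reflect the gate of origin.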

| Sequence | polyreactivity (PSR sort gate) |
| --- | --- |
| QVQLVESGGGLVQAGGSLRLSCAASRSTFVRNAMGWYREAPGKESELVAASSNVGSTYYADSVKGRFTISRDTAKNTVYFQMNILKPEDTAVYYCTKQLWYHKFNYWGQGTQVTVSA | low polyreactivity |
| QVQLVESGGGLVQAGGSLRLSCAASRSTFYRYTMGWYIQAPGKERELVADITGSGGRTYYADSVKGRFTISRDNAKNTVYLQMNSLIPEDTAVYYCNAAYVWYRARAGSEDYWGQGTQVTVSS | high polyreactivity |
| QVQLVESGGGLVQAGGSLRLSCAASSIFPSNAMGLYRPAPGKERELVAAISSGGSTNYADSVKGRFTISRDNAKNTVYLQMNSLKPEDTAVYYCAAVRYYRRRTGSYYHYDYWGQGTQVTVSS | low polyreactivity |
| QVQLVESGGGLVQAGGSLRLSCAASVFIFAIYAMGWYRQAPGKERELVADINSDGSTYYADSVKGRFTISRDNAKNTVYLQMNSLKPEDTAVYYCNAETAGHDMDYWGQGTQVTVSS | low polyreactivity |
| QVQLVESGGGLVQAGGSLRLSCAASVFIFGTNAMGWYRQAPGKERELVASISSTGGSTYYADSVKGRLTISRDNAKNTVYLQMNSLIPEDNAVSFCASDHYPEYIRYVPGVDYWGQGTQVTVSS | low polyreactivity |
| QVQLVESGGGLVQAGGSLRLSCAASVFIFGYYAMGWYRQAPGKERELVADISWSGVSTYYADSVKGRFTISRDNAKNTVYLQMNSLKPEDNAVYYCAVGYVLTGVFQARFDYWGQGTQVTVSS | high polyreactivity |
| QVQLVESGGGLVQAGGSLRLSCAASVFLPYTMGWYRQAPGKERELVAAITRGGSTYYADSVKGRFTISRDNAKNTVYLQMNSLKPEDTAVYYCAKRSTFAWRGYDYWGQGTEVTVSS | high polyreactivity |
| QVQLVESGGGLVQAGGSLRLSCAASVFTFPPYAMGWYRQAPGKERELVAAISSAGSTKYADSVKGRFTISRDNAKNTVYLQMNSLKPEDTAVYYCAARWARSYDYWGQGTQVTVSS | low polyreactivity |
| QVQLVESGGGLVQAGGSLRLSCAASVFTFSRYAMGWYRQAPGKERELVAAITRGGGNTYYADSVKGRFTISRDNAKNTVYLQMHSLNPEDTAVFYCNAQVGNFGYRSGGYDYWGQGTQVTVSS | high polyreactivity |
| QVQLVESGGGLVQAGGSLRLSCAASVFTLWLNAMGWYRQAPGKERELVAAITTSDDGTYYADSVKGRFTISRDNAKNTVYLQMNSLKPEDTAVYYCAADYYSVLYDYWGQGTQVTVSS | low polyreactivity |
| QVQLVESGGGLVQAGGSLRLSCAASVGIYSQNVRGWYRQAPGKEWELVAAISRRGGRTYYADSVKGRFKISRDNAKNTVYLQMNSLKPEDTAVYYCATLSPERRVYYTYSGLFEYWGQGTQVTVSS | high polyreactivity |
| QVQLVESGGGLVQAGGSLRLSCAASVIIFTRYAMGWYRQATGKERELVAGITRRGGSTYYADSVKGRFTISRDNAKNTVYLQMKSLKPEDTAVYYCNTYQRDYPYGVEDDSWGQGTEVTVSS | high polyreactivity |
| QVQLVESGGGLVQAGGSLRLSCAASVITFGRNTMGWYRQAPGKERELVAAISWNGDSTYYADSVKGRFTISRDNAKNTVYFQMNSLKPEDTAVYFCNADDVFLYQTDGLGDYWGQGTQVTVSS | low polyreactivity |
| QVQLVESGGGLVQAGGSLRLSCAASVLIMGYYAMGWYRQAPGKERELVAAISSTGSTNYADSVKGRFTISRDNAKNTVYLQMNTLKQEDTAVYYCAAVPPRKDYQHMDYWGQGTQVTVSS | low polyreactivity |
| QVQLVESGGGLVQAGGSLRLSCAASVRISVFNAMGWYRKPPGKESELVAGISNGGSTNYADSVKGRFTISRDNAKNTVYLQMNSLKPEDTAVYYCANDEPKVCRAFDYWGQGTQVTVSS | low polyreactivity |
| QVQLVESGGGLVQAGGSLRLSCAASVRTFWYNAMGWYRQAPGKERELVAVISSGAITYYADSVKGRFTISRDNAKNTVYLQMNSLKPEDTAVYYCNAQRRGTYYWGQGTQVTVSS | high polyreactivity |
| QVQLVESGGGLVQAGGSLRLSCAASVSIFGVKVMGWYRQAPGKERELVAAIDVSDTSTYYADSVKGRFTISRDNAKNTVYLQMNSLKAEDTAVYYCAARRTRYPFQFDYWGQGTQVTVSS | low polyreactivity |
| QVQLVESGGGLVQAGGSLRLSCAASVSIFKVNAMGWYRQAPGKERELVAAISTSGSRTYYADSVKGRFTISRDNAKNTVYLQMNSLKPEDTAVYYCADDSYAGIVRYGYWGKGTQVTVSS | high polyreactivity |
| QVQLVESGGGLVQAGGSLRLSCAASVSNFPPYVMGWYRQAPGKERELVAAITWSSGSTYYADSVKGRFTISRDNAKNTVYLQMNRLKPEDTAVYYCAAVLPFKYDYWGQGTQVTVSS | low polyreactivity |
| QVQLVESGGGLVQAGGSLRLSCAASVSTFAYYAMGWYRQAPGKERELVAVISVSGDGTSTYYADSVKGRFTISRDNAKNTVYLQMNSLKPEDTAVYNCAAEQVLVGGHTYYLTYDYWGQGTQVTVSS | low polyreactivity |
| QVQLVESGGGLVQAGGSLRLSCAASVSTFSGYAMGWYRQAPGKERELVAAISSSGGGTYYADSVKGRFTISRDNAKNTVYLQMNSLKPEDTAVFYCAAYKYFLGFVWYDYWGQGTQVTVSS | high polyreactivity |
| QVQLVESGGGLVQAGGSLRLSCAASVSTIARYAMGRYRQAPGKERELVAAISRTGRTYYADSVKGRFTISRDNAKNTVYLQMNSLKPEDTAVYYCNAYYGPRGYGYWGQGTQVTVSS | high polyreactivity |
| QVQLVESGGGLVQAGGSLRLSCAASVSTLRYYAMGWYRQAPGKERELVAAISYSGGSTYYADSVKGRFTISRDNAKNTVYLQMNRLKPEDTAVYYCNAEWGWRRYGSSYVYWGQGTQVTVSS | high polyreactivity |
| QVQLVESGGGLVQAGGSLRLSCAASVYAMGWYRQAPGKERELVAAITDSGSTNYADSVKGRFTISRDNAKNTVYLQMNSLKPEDNAVYYCNADPYYATGSWARLPLYQYDYWGQGTQVTVSS | low polyreactivity |
| QVQLVESGGGLVQAGGSLRLSCAASVYGMGWYRQAPGKERELVAAISNGGTTYYADSVKGRFTISRDNAKNTVYLQMNSLKPEDTAVYYCARSYRSDGSRFGYWGQGTQVTVSS | low polyreactivity |
| QVQLVESGGGLVQAGGSLRLSCAATGFIVAWYAMGWYRQAPGKERELVAAISSSVGSTYYADSVKGRFTISRDIAKNTVYLQMNSLKPEDTAVYYCNADEYWASGYDPYDYWGQGTQVTVSS | low polyreactivity |
| QVQLVESGGGLVQAGGSLRLSCAATGFTFEYYAMGWYRKAPGKERELVAAITSGGSTNYADSVKVRFTISRDNAKNTVSLQKNSLKPEDTAVYYCATSGNNYYYALYGYWGQGTQVTVSS | low polyreactivity |
| QVQLVESGGGLVQAGGSLRLSCAATGFTFHHYVMGWYRHAHGKEREFVASIRWRGGSTYYADSVKGRFTISRDNAKNTVYLQMNSLKPEDTAVYYCAADSFTYWSWLHGYWGQGTQVTVSS | high polyreactivity |
| QVQLVESGGGLVQAGGSLRLSCAATGFTFRWYAMGWYRQAPGKERELVAAITSDDNTYYADSVKGRFTISRDNAKNTVYLQMNSLKPEDTAVYYCAAEYADYWTYIMGYWGQGTQVTVSS | low polyreactivity |
| QVQLVESGGGLVQAGGSLRLSCAATGHTFHGYAMGWYRPAPGKERELVAAITSTGGSTHYADSVKGRFTISRDNAKNTVYLQMNSLKPEDTAVYYCAKRSYGLTRAYSAGNYWGQGTQVTVSS | low polyreactivity |
